Measurements as given in US20090263380A1 (published 2009).

Tests used:
[1] = biological target: T1, human monoclonal anti-C1 domain of Factor VIII antibody RHD5; test: cell-based or functional assay
[2] = biological target: T1, human monoclonal anti-C1 domain of …; test: competition ELISA, 18B6 with RHD5 2 µg/ml, RHD5 binding to coated recFVIII
Protocol: Recombinant Factor VIII (recFVIII) (Baxter) at 2 μg/ml in a glycine buffer, 50 μl/well, was insolubilized, then left for 2 hours at room temperature. The RHD5 antibody (or an irrelevant IgG1) at 0.6 μg/ml final concentration was pre-incubated over 2 hours with the culture supernatants in a dilution 1/1, 1/2 and 1/4 in Magic Buffer. The wells were washed 3 times with a PBS/Tween buffer, then saturated with 100 μl/well of Magic Buffer (30 min at room temperature). Afterwards, the culture supernatant was incubated with 50 μl of RHD5 (or irrelevant IgG1) (2 hours at room temperature, Magic Buffer), then, 3 washings were performed. The RHD5 antibodies bound to insolubilized recFVIII were detected by addition of 50 μl/well of a mouse polyclonal human anti-IgG HRP-labelled (Southern Biotechnology) antibodies solution of 1 μg/ml in Magic Buffer. Three successive washings were carried out with PBS/Tween, then revelation carried out with a chromogen (OPD ortho-phenyl diamine) and a reading of the obtained coloration intensity with a reader having filters corresponding to wavelengths 490/650 nm (reader Emax Molecular Devithese, Sunnyvale, Calif.).
The inhibition of RHD5 antibody binding to insolubilized recombinant FVIII was measured according to the protocol described in point IV. The concentration of used RHD5 is equal to 2 μg/ml.

[3] = biological target: T1, human monoclonal anti-C1 domain of …; test: SPR (BIAcore), RHD5 immobilized on CM5, 18B6 infused
Protocol: The binding kinetics of the anti-idiotypic antibody 18B6 to inhibitor RHD5 antibody was evaluated by use of the <<Surface plasmon resonance Biacore>> method using the Pharmacia Biosensor BIAcore (Pharmacia Biosensor AB, Uppsala, Sweden). The RHD5 antibodies were immobilized on the activated surface of a CM5 probe. The anti-idiotypic antibodies 18B6 were infused in different RHD5 concentrations immobilized on the surface of the probe. The association and dissociation constants were determined: […]

T1 sequence (VH, as listed by the source, chain 1 of 2): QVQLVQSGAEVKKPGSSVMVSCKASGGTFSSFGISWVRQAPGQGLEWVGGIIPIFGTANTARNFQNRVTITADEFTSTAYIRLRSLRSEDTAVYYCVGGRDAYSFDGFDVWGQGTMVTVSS
T1 sequence (VL, as listed by the source, chain 2 of 2): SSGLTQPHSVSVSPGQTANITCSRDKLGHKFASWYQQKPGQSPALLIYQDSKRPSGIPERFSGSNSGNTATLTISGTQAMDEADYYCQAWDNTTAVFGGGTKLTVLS

B1: anti-idiotypic antibody 18B6 (antibody, V domains shown)
VH: QVQLQQSGAELAKPGASVKMSCKASGYTFTTYWMHWIKQRPGQDLEWIGYINPTSGYTEYNQNFKDKATLTADKSSSTAYMQLNSLTSEDSAVYFCARSGAYYRYDDAMDSWGQGTSVTVSS
VL: QIVLSQSPAILSASPGEKVTMTCRASSSVSYMNWYQQKPGSSPKPWIYATSNLASGVPARFSGSGSGTSYSLTISRVEAEDAATYYCQQWSSNPPMLTFGAGTKLELK
notes: also called 18B6 anti-RHD5 clone
For B1, the “neutralisation of RHD5 inhibitory activity at an equimolar RHD5/18B6 ratio” value [1] was 50%, the “inhibition of binding at an equimolar ratio (%)” value [2] was 92% and the “molar ratio RHD5/18B6 giving 50% inhibition” value [2] was 2.5 molar ratio RHD5/18B6. It also gave a Kd [3] of 3.4 nM, a koff [3] of 1.45e-05 s⁻¹ and a kon [3] of 4260 M⁻¹ s⁻¹.
